The data set has as its system Escherichia coli TOP10. Description: shrunken log2 fold change of peptide-encoding DNA abundance (4.5 h post-induction vs induction); higher = less antimicrobial activity (less host growth inhibition). The settings on record: time post-induction: 4.5 h; library: site-saturation at positions 5, 18, 19, 20.
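Also: peptides expressed intracellularly from a pBAD plasmid library in pooled LB shake-flask culture, induced with 0.3% L-arabinose, DNA abundance read by NGS, three biological replicates, DESeq2 with apeglm shrinkage.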

In the case of RRIRKRPPRLPRPRPRPFEIPRP, the “shrunken log2 fold change” value is -0.201.
As to RRIRIRPPRLPRPRPRPQVPPRP, the “shrunken log2 fold change” value came out at 0.00863.
As to RRIRRRPPRLPRPRPRPTHNPRP, the “shrunken log2 fold change” value worked out at 0.695.
As to RRIRWRPPRLPRPRPRPLVYPRP, the “shrunken log2 fold change” value worked out at 0.114.
With RRIRPRPPRLPRPRPRPCCFPRP the figure was -0.133; with RRIRTRPPRLPRPRPRPDMTPRP, -0.0206; with RRIRMRPPRLPRPRPRPRNTPRP, 0.354.
In the case of RRIRWRPPRLPRPRPRPPAVPRP it was 0.698; in that of RRIRRRPPRLPRPRPRPEFFPRP, 0.216; in that of RRIRHRPPRLPRPRPRPKIEPRP, 0.0371.
In the case of RRIRKRPPRLPRPRPRPSRTPRP it was 0.391.
RRIRTRPPRLPRPRPRPLEDPRP: the “shrunken log2 fold change” value was -0.163.
RRIRERPPRLPRPRPRPIDDPRP: the “shrunken log2 fold change” value was 0.0583.
In the case of RRIRRRPPRLPRPRPRPNVKPRP it was 0.0575.
For the sequence RRIRIRPPRLPRPRPRPEYFPRP, the “shrunken log2 fold change” value is -0.0312.
With RRIRARPPRLPRPRPRPEWEPRP the figure was 0.877; with RRIRHRPPRLPRPRPRPPNAPRP, 0.257.
In the case of RRIRSRPPRLPRPRPRPHLPPRP it was -0.27; in that of RRIRYRPPRLPRPRPRPICDPRP, -0.269; in that of RRIRSRPPRLPRPRPRPNHMPRP, -0.236.
In the case of RRIRSRPPRLPRPRPRPEAGPRP it was 1.34.
Regarding RRIRARPPRLPRPRPRPEYNPRP, the “shrunken log2 fold change” value was determined as 0.102.
On to RRIRFRPPRLPRPRPRPLGTPRP, for which the “shrunken log2 fold change” value came out at 0.0158.
For the sequence RRIRMRPPRLPRPRPRPIWSPRP, the “shrunken log2 fold change” value came out at 0.0584.
As for RRIRQRPPRLPRPRPRPSRKPRP, the “shrunken log2 fold change” value is 0.111.
Consider RRIRERPPRLPRPRPRPIMHPRP, for which the “shrunken log2 fold change” value was -0.462.
Regarding RRIRIRPPRLPRPRPRPRKNPRP, the “shrunken log2 fold change” value is -0.133.
Consider RRIRLRPPRLPRPRPRPQLVPRP, for which the “shrunken log2 fold change” value amounted to 0.144.
In the case of RRIRARPPRLPRPRPRPGGGPRP it was 0.898.
RRIRSRPPRLPRPRPRPCLLPRP: the “shrunken log2 fold change” value is -0.284.
In the case of RRIRPRPPRLPRPRPRPSMNPRP it was -0.522; in that of RRIRQRPPRLPRPRPRPLTVPRP, 0.0325; in that of RRIRDRPPRLPRPRPRPFRMPRP, -0.125.
Turning to RRIRHRPPRLPRPRPRPKESPRP, the “shrunken log2 fold change” value was -0.069.
With RRIRARPPRLPRPRPRPVHMPRP the figure was -0.00775.
With RRIRARPPRLPRPRPRPDATPRP, the “shrunken log2 fold change” value amounted to 1.6.
With RRIRHRPPRLPRPRPRPTNHPRP the figure was -0.457.
Consider RRIRHRPPRLPRPRPRPRKNPRP, for which the “shrunken log2 fold change” value came out at 0.00268.
In the case of RRIRTRPPRLPRPRPRPNCMPRP it was -0.16; in that of RRIRYRPPRLPRPRPRPQGIPRP, -0.236.
For the sequence RRIRTRPPRLPRPRPRPEKFPRP, the “shrunken log2 fold change” value is -0.376.
Regarding RRIRFRPPRLPRPRPRPYPMPRP, the “shrunken log2 fold change” value is -0.119.
With RRIRQRPPRLPRPRPRPTCFPRP the figure was 0.132; with RRIRVRPPRLPRPRPRPVPEPRP, 0.564; with RRIRLRPPRLPRPRPRPIWQPRP, 0.0488.
In the case of RRIRLRPPRLPRPRPRPCANPRP, the “shrunken log2 fold change” value is -0.212.
With RRIRKRPPRLPRPRPRPQIIPRP the figure was 0.0891; with RRIRRRPPRLPRPRPRPFQDPRP, -0.15.
In the case of RRIRLRPPRLPRPRPRPYNWPRP it was -0.0937; in that of RRIRRRPPRLPRPRPRPNFTPRP, 0.205; in that of RRIRDRPPRLPRPRPRPVPFPRP, 2.99.
For RRIRWRPPRLPRPRPRPYHRPRP, the “shrunken log2 fold change” value is -0.201.
Turning to RRIRPRPPRLPRPRPRPWNEPRP, the “shrunken log2 fold change” value is -0.138.
In the case of RRIRERPPRLPRPRPRPTANPRP it was -0.154; in that of RRIRPRPPRLPRPRPRPIWYPRP, -0.0201.
In the case of RRIRHRPPRLPRPRPRPIDSPRP, the “shrunken log2 fold change” value is -0.0116.
With RRIRSRPPRLPRPRPRPYDQPRP the figure was -0.21; with RRIRQRPPRLPRPRPRPERVPRP, 0.0836; with RRIRKRPPRLPRPRPRPAYHPRP, -0.144.
With RRIRRRPPRLPRPRPRPWQGPRP the figure was -0.00783; with RRIRDRPPRLPRPRPRPALKPRP, 0.407; with RRIRGRPPRLPRPRPRPKIKPRP, 0.564.
Take RRIRLRPPRLPRPRPRPAHHPRP: the “shrunken log2 fold change” value was determined as 0.0653.
Consider RRIRIRPPRLPRPRPRPKLWPRP, for which the “shrunken log2 fold change” value is -0.182.
For the sequence RRIRIRPPRLPRPRPRPRVAPRP, the “shrunken log2 fold change” value turned out to be 0.386.
With RRIRYRPPRLPRPRPRPEKIPRP the figure was 0.0147; with RRIRFRPPRLPRPRPRPKREPRP, 0.0359; with RRIRMRPPRLPRPRPRPCKNPRP, 4.11.
With RRIRVRPPRLPRPRPRPVTFPRP the figure was -0.467; with RRIRCRPPRLPRPRPRPEPAPRP, 0.971.
Consider RRIRKRPPRLPRPRPRPQECPRP, for which the “shrunken log2 fold change” value is -0.00957.
With RRIRPRPPRLPRPRPRPWHDPRP, the “shrunken log2 fold change” value is -0.112.
For RRIRARPPRLPRPRPRPCSGPRP, the “shrunken log2 fold change” value was 0.0771.
In the case of RRIRERPPRLPRPRPRPWPPPRP it was 0.045.
With RRIRRRPPRLPRPRPRPIDPPRP the figure was -0.0222.
With RRIRHRPPRLPRPRPRPFQMPRP the figure was -0.0675.
For RRIRARPPRLPRPRPRPWKRPRP, the “shrunken log2 fold change” value came to 0.125.
In the case of RRIRKRPPRLPRPRPRPMNWPRP it was 0.134; in that of RRIRIRPPRLPRPRPRPMHCPRP, -0.00192; in that of RRIRERPPRLPRPRPRPWPQPRP, -0.0216.
With RRIRHRPPRLPRPRPRPTAVPRP the figure was -0.295; with RRIRFRPPRLPRPRPRPCAFPRP, -0.393; with RRIRWRPPRLPRPRPRPSYPPRP, -0.254.
In the case of RRIRRRPPRLPRPRPRPYSYPRP it was -0.0587; in that of RRIRIRPPRLPRPRPRPAWLPRP, 0.272.
For RRIRQRPPRLPRPRPRPDMNPRP, the “shrunken log2 fold change” value is -0.654.
In the case of RRIRWRPPRLPRPRPRPHNIPRP it was -0.691; in that of RRIRCRPPRLPRPRPRPPQHPRP, 0.49; in that of RRIRWRPPRLPRPRPRPEHRPRP, 0.231.
Turning to RRIRARPPRLPRPRPRPIHDPRP, the “shrunken log2 fold change” value was -0.0961.
Regarding RRIRGRPPRLPRPRPRPVEGPRP, the “shrunken log2 fold change” value was 0.305.
As to RRIRMRPPRLPRPRPRPMIMPRP, the “shrunken log2 fold change” value turned out to be 0.421.
In the case of RRIRLRPPRLPRPRPRPSHYPRP it was -0.367.
With RRIRERPPRLPRPRPRPRIKPRP the figure was -0.598.
In the case of RRIRQRPPRLPRPRPRPFIFPRP it was -0.257.
For RRIRGRPPRLPRPRPRPPEDPRP, the “shrunken log2 fold change” value amounted to 1.21.
With RRIRERPPRLPRPRPRPTMCPRP the figure was 0.292.
With RRIRGRPPRLPRPRPRPYIKPRP the figure was -0.164.
With RRIRIRPPRLPRPRPRPDLAPRP, the “shrunken log2 fold change” value was -0.169.
In the case of RRIRYRPPRLPRPRPRPQWKPRP it was -0.01; in that of RRIRNRPPRLPRPRPRPTATPRP, 0.433; in that of RRIRLRPPRLPRPRPRPMAGPRP, 0.208.
In the case of RRIRARPPRLPRPRPRPFRTPRP it was 0.12; in that of RRIRHRPPRLPRPRPRPRKMPRP, -0.246; in that of RRIRGRPPRLPRPRPRPSFGPRP, 0.0834.
In the case of RRIRFRPPRLPRPRPRPMVAPRP it was 0.297; in that of RRIRPRPPRLPRPRPRPDGDPRP, 0.152.
As for RRIRSRPPRLPRPRPRPKIVPRP, the “shrunken log2 fold change” value was -0.265.
Consider RRIRIRPPRLPRPRPRPSWAPRP, for which the “shrunken log2 fold change” value was -0.0867.
Consider RRIRLRPPRLPRPRPRPQSCPRP, for which the “shrunken log2 fold change” value turned out to be 0.123.
With RRIRERPPRLPRPRPRPNKHPRP the figure was -0.575; with RRIRYRPPRLPRPRPRPRGPPRP, 0.127.
With RRIRSRPPRLPRPRPRPIVPPRP the figure was -0.0492; with RRIRQRPPRLPRPRPRPSINPRP, -0.806; with RRIRARPPRLPRPRPRPDEHPRP, 0.54.
In the case of RRIRYRPPRLPRPRPRPYELPRP, the “shrunken log2 fold change” value is -0.0164.
In the case of RRIRDRPPRLPRPRPRPEMLPRP it was 1.4; in that of RRIRLRPPRLPRPRPRPYHGPRP, -0.278.
As to RRIRHRPPRLPRPRPRPCNCPRP, the “shrunken log2 fold change” value stood at 0.0668.
In the case of RRIRPRPPRLPRPRPRPAWLPRP it was 0.513; in that of RRIRIRPPRLPRPRPRPEHYPRP, -0.295; in that of RRIRGRPPRLPRPRPRPKVTPRP, 0.29.
For the sequence RRIRNRPPRLPRPRPRPAWHPRP, the “shrunken log2 fold change” value is 0.259.
In the case of RRIRFRPPRLPRPRPRPVWFPRP it was -0.182; in that of RRIRQRPPRLPRPRPRPMVAPRP, 0.143.

Source of the values: the supplement of paper PMC9112550, “Optimization of the antimicrobial peptide Bac7 by deep mutational scanning” (BMC Biology, 2022).
